From the supplement of paper PMC9732359
± gives the uncertainty stated by the source.

Test: protein stability index of a GFP-peptide fusion (yeast GPS) (PSI 1-4); higher = more stable; sorted into four equal gates, so the index is relative within each strain
Method in brief: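 Plasmids in a pooled yeast library fused tiled 17-residue yeast protein peptides downstream of GFP and also expressed Cherry. Mid-log cultures grown without leucine were sorted into four equal gates by GFP/Cherry fluorescence ratio. Each gate's plasmids were PCR-amplified and Illumina-sequenced, and reads were matched to strains by barcodes. The protein stability index is derived by multiplying each gate's read frequency by its gate number and summing the results.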

Sequence | protein stability index (doa10∆) | protein stability index (pdr5∆) | protein stability index (san1∆) | protein stability index (ubr1∆)
SNDEKQKAQDVDVSMQD [RPN13] | 3.17 ± 0.091 | 3.27 ± 0.064 | 3.22 ± 0.041 | 3.31 ± 0.044
TNSEDKLSKVQLYEDLC [MED4] | 3.04 ± 0.083 | 3.22 ± 0.091 | 3.09 ± 0.081 | 2.74 ± 0.059
SKSGRIFALVFSSNERY [RPN13] | 2.45 ± 0.1 | 2.74 ± 0.086 | 2.28 ± 0.11 | 2.62 ± 0.049
RVGGGGTGRSGQGAFGN [RPL4A] | 3.54 ± 0.13 | 3.52 ± 0.11 | 3.54 ± 0.066 | 3.34 ± 0.1
TKLHSGDYGEEEDADQE [SRB8] | 2.5 ± 0.16 | 2.58 ± 0.12 | – | 2.38 ± 0.2
TGKDCVAIACDLRLGSQ [PUP3] | 1.38 ± 0.088 | 1.48 ± 0.092 | 2.32 ± 0.064 | 2.7 ± 0.061
YWYWWKNGNEYNEFLYS [QCR8] | 2.62 ± 0.066 | 2.21 ± 0.049 | 2.49 ± 0.06 | 2.56 ± 0.047
QSISQNSSSSTPNTNSN [SWI1] | 2.73 ± 0.055 | 2.8 ± 0.049 | 2.9 ± 0.051 | 2.82 ± 0.048
DPSISNNIRQAICRYAN [RRP4] | 2.09 ± 0.077 | 2.06 ± 0.049 | 1.59 ± 0.11 | 2.43 ± 0.056
GRIPNVPVIVKARFVSK [RPL28] | 2.32 ± 0.025 | 2.575 ± 0.024 | 2.599 ± 0.025 | 2.648 ± 0.021
IRLAKTLKKNNVAVDII [RPN10] | 2.73 ± 0.085 | 2.85 ± 0.095 | 2.92 ± 0.12 | 2.56 ± 0.075
MGSLINGITLALIDAGI [SKI6] | 1.89 ± 0.1 | 2.1 ± 0.055 | 2.05 ± 0.075 | 2 ± 0.051
AFPHLYNSRPRSVRIPW [PRP8] | 2.94 ± 0.1 | 2.45 ± 0.084 | 1.7 ± 0.13 | 2.59 ± 0.066
MQRQQQGISGSQQNIVP [SNF2] | 2.91 ± 0.059 | 3.14 ± 0.05 | 3.19 ± 0.046 | 3.01 ± 0.047
VAQQQVQRQIEQQKGQQ [SNF5] | 3.42 ± 0.079 | 3.14 ± 0.1 | 3.46 ± 0.075 | 3.19 ± 0.089
NFSGLNGGITNTATNAL [YOR098C/NUP1] | 3.15 ± 0.12 | 2.91 ± 0.13 | 2.84 ± 0.084 | 3.34 ± 0.11
YLNLLQEDELDEGTALS [RPB10] | 3.38 ± 0.11 | 3.3 ± 0.13 | 3.4 ± 0.11 | 3.18 ± 0.16
DKFFTLSAENIEERLVA [SCL1] | 3.01 ± 0.074 | 3.01 ± 0.084 | 3.06 ± 0.082 | 3.02 ± 0.069
VNLDNTAVGKAAVVKTS [RPT5] | 3.16 ± 0.064 | 3.12 ± 0.057 | 3.28 ± 0.041 | 3.05 ± 0.039
VKLYGREGSSARTIKAT [RPB2] | 2.47 ± 0.12 | 3.36 ± 0.12 | 3.25 ± 0.088 | 3.29 ± 0.19
DPYELKGEVVLVNIRTQ [ITC1] | 1.57 ± 0.098 | 2.66 ± 0.14 | 2.45 ± 0.11 | 2.3 ± 0.099
DFNQAKHEEIDTKNLYV [RPS10A] | 3.38 ± 0.16 | 2.81 ± 0.12 | 3.29 ± 0.078 | 3.07 ± 0.074
RQCFREKANDIGFNKFR [RPS29A] | 3.32 ± 0.15 | 3.3 ± 0.13 | 3 ± 0.098 | 2.92 ± 0.098
QAVNNLIKTLSTLHMLG [RPP1] | 2.5 ± 0.053 | 2.45 ± 0.058 | 2.38 ± 0.071 | 2.47 ± 0.042
RESTKALTRGEALLVVL [RPS12] | – | 3.49 ± 0.16 | – | 3.4 ± 0.045
FTGQGSQEQGMGMDLYK [FAS1] | 3.28 ± 0.12 | 3.4 ± 0.093 | 3.41 ± 0.1 | 3.4 ± 0.088
